# Test results published in paper PMC5909953 (Current biology : CB, 2017).
# B1: Kif15-FL-GFP-His6 (natural protein, human, UniProt Q9NS87 1-1388, looked up)
# chain: MAPGCKTELRSVTNGQSNQPSNEGDAIKVFVRIRPPAERSGSADGEQNLCLSVLSSTSLRLHSNPEPKTFTFDHVADVDTTQESVFATVAKSIVESCMSGYNGTIFAYGQTGSGKTFTMMGPSESDNFSHNLRGVIPRSFEYLFSLIDREKEKAGAGKSFLCKCSFIEIYNEQIYDLLDSASAGLYLREHIKKGVFVVGAVEQVVTSAAEAYQVLSGGWRNRRVASTSMNRESSRSHAVFTITIESMEKSNEIVNIRTSLLNLVDLAGSERQKDTHAEGMRLKEAGNINRSLSCLGQVITALVDVGNGKQRHVCYRDSKLTFLLRDSLGGNAKTAIIANVHPGSRCFGETLSTLNFAQRAKLIKNKAVVNEDTQGNVSQLQAEVKRLKEQLAELASGQTPPESFLTRDKKKTNYMEYFQEAMLFFKKSEQEKKSLIEKVTQLEDLTLKKEKFIQSNKMIVKFREDQIIRLEKLHKESRGGFLPEEQDRLLSELRNEIQTLREQIEHHPRVAKYAMENHSLREENRRLRLLEPVKRAQEMDAQTIAKLEKAFSEISGMEKSDKNQQGFSPKAQKEPCLFANTEKLKAQLLQIQTELNNSKQEYEEFKELTRKRQLELESELQSLQKANLNLENLLEATKACKRQEVSQLNKIHAETLKIITTPTKAYQLHSRPVPKLSPEMGSFGSLYTQNSSILDNDILNEPVPPEMNEQAFEAISEELRTVQEQMSALQAKLDEEEHKNLKLQQHVDKLEHHSTQMQELFSSERIDWTKQQEELLSQLNVLEKQLQETQTKNDFLKSEVHDLRVVLHSADKELSSVKLEYSSFKTNQEKEFNKLSERHMHVQLQLDNLRLENEKLLESKACLQDSYDNLQEIMKFEIDQLSRNLQNFKKENETLKSDLNNLMELLEAEKERNNKLSLQFEEDKENSSKEILKVLEAVRQEKQKETAKCEQQMAKVQKLEESLLATEKVISSLEKSRDSDKKVVADLMNQIQELRTSVCEKTETIDTLKQELKDINCKYNSALVDREESRVLIKKQEVDILDLKETLRLRILSEDIERDMLCEDLAHATEQLNMLTEASKKHSGLLQSAQEELTKKEALIQELQHKLNQKKEEVEQKKNEYNFKMRQLEHVMDSAAEDPQSPKTPPHFQTHLAKLLETQEQEIEDGRASKTSLEHLVTKLNEDREVKNAEILRMKEQLREMENLRLESQQLIEKNWLLQGQLDDIKRQKENSDQNHPDNQQLKNEQEESIKERLAKSKIVEEMLKMKADLEEVQSALYNKEMECLRMTDEVERTQTLESKAFQEKEQLRSKLEEMYEERERTSQEMEMLRKQVECLAEENGKLVGHQNLHQKIQYVVRLKKENVRLAEETEKLRAENVFLKEKKRSES
# Biological target: the molecule itself
# Experiment: single molecule photobleaching
protein,measurement,value
B1,stoichiometry N,2
